Experimental data from doi:10.1101/2024.11.26.625467.

Biological target: CO17 B NA (neuraminidase head of B/Colorado/06/2017, B/Victoria-lineage) (influenza B virus B/Colorado/06/2017)
Experiment: cryo-EM structure

## CO17 B NA (neuraminidase head of B/Colorado/06/2017, B/Victoria-lineage) (domain or fragment)
  stoichiometry N: 4
